According to patent publication US20260176373A1 (BRIGHT BIOLOGICS, published 2026):

Legend:
[1] = target: T1, human TROP2 (Trophoblast cell-surface antigen 2) (human, UniProt P09758 27-323); test: flow cytometry whole cell binding, CHO-h-TROP2 stable cells
T1 construct: whole, on cells; also called TACSTD2; h-TROP2
T1 sequence (looked up): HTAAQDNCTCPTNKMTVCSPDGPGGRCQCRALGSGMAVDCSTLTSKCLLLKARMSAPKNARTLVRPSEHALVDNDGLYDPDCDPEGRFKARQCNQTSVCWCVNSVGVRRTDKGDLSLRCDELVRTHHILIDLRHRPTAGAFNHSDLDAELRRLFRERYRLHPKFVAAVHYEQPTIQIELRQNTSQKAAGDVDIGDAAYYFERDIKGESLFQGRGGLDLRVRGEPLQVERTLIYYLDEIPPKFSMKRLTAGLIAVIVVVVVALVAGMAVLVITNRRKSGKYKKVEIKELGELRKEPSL
Description: (§1) Binding of bivalent anti-TROP2 VHH-Fc clones to human TROP2 in human TROP2 stably transfected CHO cells (CHO-h-TROP2 stable cells) were determined by flow cytometry whole cell binding (WCB) assays. Briefly, antibodies were incubated at different concentrations with CHO-h-TROP2 stable cells (0.2×10⁶/ml) in 96-well plates (100 μl/well) in FACS buffer for 30 min. After washing, Alexa Fluor 488 conjugated anti-human IgG Fc secondary antibody was added, and incubated for 30 min. After washing, MFI was measured using CytoFlex by gating live cell population with FITC channel. EC50 of binding was calculated using GraphPad Prism7.0.
Humanization of Alpaca clone 1H11 was carried out using the same strategy. Ten humanized VHH-Fc variants were made with minor difference in Framework 2. The binding activity of humanized variants to human TROP2 was examined using whole cell binding assays.

[2] = target: T1, human TROP2 (Trophoblast cell-surface …); test: flow cytometry whole cell binding, Colo205 cells (endogenous TROP2)
[3] = target: T2, human TROP2 (Trophoblast cell-surface antigen 2) (human, UniProt P09758 27-323); test: flow cytometry whole cell binding, SKBR3
T2 chain: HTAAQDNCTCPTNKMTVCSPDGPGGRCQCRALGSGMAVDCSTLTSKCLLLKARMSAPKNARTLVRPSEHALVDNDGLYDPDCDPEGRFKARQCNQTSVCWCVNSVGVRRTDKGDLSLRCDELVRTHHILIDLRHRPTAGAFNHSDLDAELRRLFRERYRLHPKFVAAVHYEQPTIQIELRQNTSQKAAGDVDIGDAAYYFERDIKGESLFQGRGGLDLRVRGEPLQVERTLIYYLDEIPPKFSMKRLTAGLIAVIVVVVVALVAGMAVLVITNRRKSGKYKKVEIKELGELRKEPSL

[4] = target: T1, human TROP2 (Trophoblast cell-surface …); test: flow cytometry whole cell binding, NCI-H1975 cells (endogenous TROP2)
[5] = target: T1, human TROP2 (Trophoblast cell-surface …); test: flow cytometry whole cell binding, h-TROP2 stably transfected CHO cells
Description: as §1

[6] = target: T1, human TROP2 (Trophoblast cell-surface …); test: flow cytometry whole cell binding, CHO-h-TROP2 stable cells; remark: listed apart in the source
Description: as §1
The same strategy was carried out for the humanization of Alpaca clone 4C6. Ten humanized VHH-Fc variants were made for 4C6 with minor difference in Framework 2 and Framework 3. Whole cell binding to CHO-h-TROP2 stable cells was performed to compare the binding affinities of these humanized VHH-Fc variants to the parental Alpaca clone 4C6.

[7] = target: T1, human TROP2 (Trophoblast cell-surface …); test: as above; remark: listed apart in the source
[8] = target: human TROP2 (Trophoblast cell-surface antigen 2) (human) (UniProt P09758); test: cell-based or functional assay
[9] = target: human TROP2 (Trophoblast cell-surface antigen 2) (human) (UniProt P09758); test: flow cytometry, OE-19 cells
[10] = target: human TROP2 (Trophoblast cell-surface antigen 2) (human) (UniProt P09758); test: flow cytometry, SKOV3 cells
[11] = target: human TROP2 (Trophoblast cell-surface antigen 2) (human) (UniProt P09758); test: flow cytometry whole cell binding, SKBR3 cells
[12] = target: human TROP2 (Trophoblast cell-surface antigen 2) (human) (UniProt P09758); test: flow cytometry whole cell binding, HCC202 cells
[13] = target: human TROP2 (Trophoblast cell-surface antigen 2) (human) (UniProt P09758); test: flow cytometry, AU-565 cells, Immu-132 at 100 nM
[14] = target: human TROP2 (Trophoblast cell-surface antigen 2) (human) (UniProt P09758); test: flow cytometry, SKBR3 cells, antibody at 100 nM
[15] = target: human TROP2 (Trophoblast cell-surface antigen 2) (human) (UniProt P09758); test: flow cytometry whole cell binding, NCI-H441 cells
[16] = target: human TROP2 (Trophoblast cell-surface antigen 2) (human) (UniProt P09758); test: flow cytometry, HCC202 cells, antibody at 100 nM
[17] = target: human TROP2 (Trophoblast cell-surface antigen 2) (human) (UniProt P09758); test: flow cytometry, NCI-H441 cells, Immu-132 at 100 nM
[18] = target: human TROP2 (Trophoblast cell-surface antigen 2) (human) (UniProt P09758); test: flow cytometry whole cell binding, CHO-h-TROP2 stable cells
[19] = target: human TROP2 (Trophoblast cell-surface antigen 2) (human) (UniProt P09758); test: as above; remark: listed apart in the source
[20] = target: human TROP2 (Trophoblast cell-surface antigen 2) (human) (UniProt P09758); test: flow cytometry whole cell binding, Colo205 cells (endogenous TROP2)
[21] = target: human TROP2 (Trophoblast cell-surface antigen 2) (human) (UniProt P09758); test: flow cytometry whole cell binding, NCI-H1975 cells (endogenous TROP2)
[22] = target: human TROP2 (Trophoblast cell-surface antigen 2) (human) (UniProt P09758); test: flow cytometry whole cell binding, h-TROP2 stably transfected CHO cells

B1: anti-TROP2 VHH-Fc clone Alpaca 1H11 (antibody, human IgG1, V domains shown)
VH: LVQLVESGGGLVQAGDSLRLSCTASGGTFSRYIIGWFRQAPGKEREFVTTISGSGGSTYYADSVKGRFTISRDNAKNTVFLQMNSLKPEDTAVYYCASTFYSTTYVAQRDARDYAYWGQGTQVTVSS
notes: domain: hinge region and constant domains (CH2 and CH3); bivalent VHH-Fc, human IgG1 Fc
B1 was tested, and the EC50 [1] was 1.57 nM, the EC50 [2] was 1.53 nM and the EC50 [3] was 2.14 nM. The EC50 [4] was 2.59 nM and the EC50 [5] was 1.84 nM.

B2: 1H11-hv8 (humanized VHH-Fc variant of 1H11, Example 5) (antibody, V domains shown)
VH: EVQLVESGGGLVQPGGSLRLSCAASGGTFSRYIMGWFRQAPGKEREFVSTISGSGGSTYYADSVKGRFTISRDNSKNTLYLQMNSLRAEDTAVYYCASTFYSTTYVAQRDARDYAYWGQGTQVTVSS
notes: hinge not specified
Work on B2 yielded an EC50 [1] of 1.97 nM, an EC50 [2] of 1.29 nM and an EC50 [4] of 2.54 nM.

B3: 1H11-hv7 (humanized VHH-Fc variant of 1H11) (antibody, V domains shown)
VH: EVQLVESGGGLVQPGGSLRLSCAASGGTFSRYIIGWFRQAPGKEREFVSTISGSGGSTYYADSVKGRFTISRDNSKNTLYLQMNSLRAEDTAVYYCASTFYSTTYVAQRDARDYAYWGQGTQVTVSS
Work on B3 yielded an EC50 [1] of 2.59 nM, an EC50 [2] of 1.19 nM and an EC50 [4] of 2.42 nM.

B4: 1H11-hv9 (humanized VHH-Fc variant of 1H11) (antibody, V domains shown)
VH: EVQLVESGGGLVQPGGSLRLSCAASGGTFSRYIMSWFRQAPGKEREFVSTISGSGGSTYYADSVKGRFTISRDNSKNTLYLQMNSLRAEDTAVYYCASTFYSTTYVAQRDARDYAYWGQGTQVTVSS
B4 showed an EC50 [1] of 2.73 nM, an EC50 [2] of 1.29 nM and an EC50 [4] of 3.04 nM.

B5: 1H11-hv6 (humanized VHH-Fc variant of 1H11) (antibody, V domains shown)
VH: EVQLVESGGGLVQPGGSLRLSCAASGGTFSRYIIGWFRQAPGKEREFVTTISGSGGSTYYADSVKGRFTISRDNSKNTLYLQMNSLRAEDTAVYYCASTFYSTTYVAQRDARDYAYWGQGTQVTVSS
B5 was tested, and the EC50 [1] was 2.18 nM, the EC50 [2] was 1.22 nM and the EC50 [4] was 2.7 nM.

B6: 4C6-hv10 (humanized VHH-Fc variant of 4C6) (antibody, V domains shown)
VH: EVQLVESGGGLVQPGGSLRLSCAASGHPFAMYAMGWFRQAPGKEREFVAAIAGNGGSTSYADSVKGRFTISRDNSKNTLYLQMNSLRAEDTAVYYCAAAGGTFYSGTTVATRSSHYDYWGQGTQVTVSS
Binder B6 has an EC50 [6] of 1.46 nM.

B7: 4C6-hv4 (humanized VHH-Fc variant of 4C6) (antibody, V domains shown)
VH: EVQLVESGGGLVQPGGSLRLSCAASGHPFAMYAMGWFRQAPGKEREFVSAIAGNGGSTSYADSVKGRFTISRDNSKNTLYLQMNSLRAEDTAVYYCAAAGGTFYSGTTVATRSSHYDYWGQGTQVTVSS
B7 gave an EC50 [6] of 2.6 nM.

B8: 4C6-hv9 (humanized VHH-Fc variant of 4C6) (antibody, V domains shown)
VH: EVQLVESGGGLVQPGGSLRLSCAASGHPFAMYAMGWFRQAPGKEREFVSAIAGNGGSTYYADSVKGRFTISRDNSKNTLYLQMNSLRAEDTAVYYCAAAGGTFYSGTTVATRSSHYDYWGQGTQVTVSS
B8 was tested, and the EC50 [6] was 2.32 nM.

B9: anti-TROP2 VHH-Fc clone Alpaca 4C6 (antibody, human IgG1, V domains shown)
VH: QVQVVESGGGLVQAGGSQRLSCAVSGHPFAMYAMGWFRQAPGKEREFVAAIAGNGGSTSYADSVKGRFTISRDYAKNTNYLQMNSLEPEDTAVYYCAAAGGTFYSGTTVATRSSHYDYWGQGTQVTVSS
notes: domain: hinge region and constant domains (CH2 and CH3); bivalent VHH-Fc, human IgG1 Fc; also called 4C6 Alpaca
Work on B9 yielded an EC50 [6] of 0.97 nM, an EC50 [3] of 1.58 nM and an EC50 [5] of 1.37 nM.

B10: 1H11-hv10 (humanized VHH-Fc variant of 1H11, Example 5) (antibody, V domains shown)
VH: EVQLVESGGGLVQPGGSLRLSCAASGGTFSRYIMSWFRQAPGKEREFVSAISGSGGSTYYADSVKGRFTISRDNSKNTLYLQMNSLRAEDTAVYYCASTFYSTTYVAQRDARDYAYWGQGTQVTVSS
notes: hinge not specified
B10 was tested, and the EC50 [1] was 2.29 nM, the EC50 [2] was 1.71 nM and the EC50 [4] was 3.12 nM.

B11: 1H11-hv10_Fc (antibody, V domains shown)
VH: EVQLVESGGGLVQPGGSLRLSCAASGGTFSRYIMSWFRQAPGKEREFVSAISGSGGSTYYADSVKGRFTISRDNSKNTLYLQMNSLRAEDTAVYYCASTFYSTTYVAQRDARDYAYWGQGTQVTVSS
notes: monospecific bivalent VHH-Fc with C220S mutation in the hinge region; also called monospecific anti-TROP2 (1H11-hv10)
For B11, the EC50 [7] was 2.38 nM.

B12: Immu-132 (antibody, INN chains, looked up, V domains shown)
VH: QVQLQQSGSELKKPGASVKVSCKASGYTFTNYGMNWVKQAPGQGLKWMGWINTYTGEPTYTDDFKGRFAFSLDTSVSTAYLQISSLKADDTAVYFCARGGFGSSYWYFDVWGQGSLVTVSS
VL: DIQLTQSPSSLSASVGDRVSITCKASQDVSIAVAWYQQKPGKAPKLLIYSASYRYTGVPDRFSGSGSGTDFTLTISSLQPEDFAVYYCQQHYITPLTFGAGTKVEIKR
modifications: unconjugated
For B12, the IC50, nM, Killing of HCC202 cells by 2nd Ab-MMAE [8] was 0.19 nM, the IC50, nM, Killing of NCI-H441 cells by 2nd Ab-MMAE [8] was 0.13 nM and the IC50, nM, Killing of SKBR3 cells by 2nd Ab-MMAE [8] was 0.452 nM. For the same binder, the MFI [9] was 30000 MFI, the MFI [10] was 50000 MFI and the EC50 [11] was 128 nM. The EC50 [12] was 4.02 nM, the MFI [13] was 90000 MFI and the MFI [14] was 90000 MFI. It also gave an EC50 [15] of 1.74 nM, an MFI [16] of 200000 MFI and an MFI [17] of 200000 MFI. For the same binder, the EC50 [18] was 0.84 nM, the EC50 [19] was 1.16 nM and the EC50 [20] was 1.15 nM. It also gave an EC50 [21] of 3.61 nM and an EC50 [22] of 2.2 nM.

B13: Immu-132_MMAE (protein, INN chains, looked up)
VH: QVQLQQSGSELKKPGASVKVSCKASGYTFTNYGMNWVKQAPGQGLKWMGWINTYTGEPTYTDDFKGRFAFSLDTSVSTAYLQISSLKADDTAVYFCARGGFGSSYWYFDVWGQGSLVTVSS
VL: DIQLTQSPSSLSASVGDRVSITCKASQDVSIAVAWYQQKPGKAPKLLIYSASYRYTGVPDRFSGSGSGTDFTLTISSLQPEDFAVYYCQQHYITPLTFGAGTKVEIK
modifications: vc-MMAE payload conjugate
B13 showed an IC50 (nM) in ADC mediated killing, NCI-H441 cells, Immu-132 MMAE DAR3.5 [8] of 0.047 nM, an IC50 (nM) in ADC mediated killing, NCI-H441 cells, Immu-132 MMAE DAR4.0 [8] of 0.04 nM and an IC50 (nM) in ADC mediated killing, NCI-H441 cells, Immu-132 MMAE DAR4.4 [8] of 0.033 nM. It also gave an IC50, nM, in killing assay, A431 cells [8] of 0.611 nM, an IC50, nM, in killing assay, AU-565 cells [8] of 0.0489 nM and an IC50, nM, in killing assay, Colo205 cells [8] of 0.45 nM. It also gave an IC50, nM, in killing assay, N87 cells [8] of 0.092 nM, an IC50, nM, in killing assay, NCI-H441 cells [8] of 0.054 nM and an IC50, nM, in killing assay, NCI-H1975 cells [8] of 0.25 nM. The IC50, nM, in killing assay, OE-19 cells [8] was 1.1 nM, the IC50, nM, in killing assay, SK-OV3 cells [8] was 1.44 nM and the IC50, nM, in killing assay, SKBR3 cells [8] was 0.0362 nM. The IC50, nM, in killing assay, T-47D cells [8] was 0.21 nM.
